Residue numbers refer to the chain shown, from its start.
Assays:
Test in all cases: two-hybrid; LexA-Cdc1 bait (pBTM116 or pBTM116BN) with Gal4-Pol3 prey and co-expressed c-myc-tagged Cdc27 (pAA-Cdc27) in S. cerevisiae CTY10-5d; ONPG liquid culture beta-galactosidase assay, mean of triplicates, as percent of wild-type Cdc1
Conditions in all cases: partners not purified
Cdc1-E1 = molecular target: T1, Cdc1-E1 (Schizosaccharomyces pombe, UniProt P87324 1-462, Ser-GlyValProGlnSer-Asp)
T1 construct: Cdc1, S. pombe, with a pentapeptide inserted after residue 66; source: yeast two-hybrid fusion, in S. cerevisiae CTY10-5d
T1 sequence (looked up): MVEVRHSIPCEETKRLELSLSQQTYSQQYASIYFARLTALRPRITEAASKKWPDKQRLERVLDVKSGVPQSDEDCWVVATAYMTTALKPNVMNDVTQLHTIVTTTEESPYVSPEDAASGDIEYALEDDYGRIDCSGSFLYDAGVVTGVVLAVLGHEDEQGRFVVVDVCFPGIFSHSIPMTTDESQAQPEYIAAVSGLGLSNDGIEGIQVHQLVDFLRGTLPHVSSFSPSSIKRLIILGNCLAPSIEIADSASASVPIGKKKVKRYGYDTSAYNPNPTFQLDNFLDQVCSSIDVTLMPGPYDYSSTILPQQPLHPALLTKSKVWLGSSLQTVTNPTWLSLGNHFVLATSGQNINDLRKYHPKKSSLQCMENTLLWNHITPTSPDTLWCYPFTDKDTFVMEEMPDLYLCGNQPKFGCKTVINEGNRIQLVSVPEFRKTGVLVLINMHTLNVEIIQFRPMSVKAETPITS

Cdc1-E5 = molecular target: T2, Cdc1-E5 (Schizosaccharomyces pombe, UniProt P87324 1-462, Val-MetGlyTyrProVal-Met)
T2 construct: Cdc1, S. pombe, with a pentapeptide inserted after residue 86; source: yeast two-hybrid fusion, in S. cerevisiae CTY10-5d
T2 sequence (looked up): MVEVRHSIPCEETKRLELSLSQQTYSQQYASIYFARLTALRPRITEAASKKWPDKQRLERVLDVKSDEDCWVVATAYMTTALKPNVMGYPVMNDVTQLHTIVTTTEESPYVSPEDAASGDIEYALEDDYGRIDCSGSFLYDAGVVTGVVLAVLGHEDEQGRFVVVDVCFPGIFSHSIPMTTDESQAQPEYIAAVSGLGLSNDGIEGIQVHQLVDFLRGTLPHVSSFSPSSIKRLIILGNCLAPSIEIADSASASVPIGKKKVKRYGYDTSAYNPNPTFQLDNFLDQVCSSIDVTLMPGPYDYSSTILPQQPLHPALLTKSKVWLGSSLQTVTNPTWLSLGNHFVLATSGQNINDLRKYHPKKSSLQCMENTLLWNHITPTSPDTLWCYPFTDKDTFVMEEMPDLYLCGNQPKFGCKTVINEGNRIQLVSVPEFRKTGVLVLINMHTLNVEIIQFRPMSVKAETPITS

Cdc1-A7 = molecular target: T3, Cdc1-A7 (Schizosaccharomyces pombe, UniProt P87324 1-462, Gly344Ala)
T3 construct: Cdc1, S. pombe, point mutant; source: yeast two-hybrid fusion, in S. cerevisiae CTY10-5d
T3 sequence (looked up): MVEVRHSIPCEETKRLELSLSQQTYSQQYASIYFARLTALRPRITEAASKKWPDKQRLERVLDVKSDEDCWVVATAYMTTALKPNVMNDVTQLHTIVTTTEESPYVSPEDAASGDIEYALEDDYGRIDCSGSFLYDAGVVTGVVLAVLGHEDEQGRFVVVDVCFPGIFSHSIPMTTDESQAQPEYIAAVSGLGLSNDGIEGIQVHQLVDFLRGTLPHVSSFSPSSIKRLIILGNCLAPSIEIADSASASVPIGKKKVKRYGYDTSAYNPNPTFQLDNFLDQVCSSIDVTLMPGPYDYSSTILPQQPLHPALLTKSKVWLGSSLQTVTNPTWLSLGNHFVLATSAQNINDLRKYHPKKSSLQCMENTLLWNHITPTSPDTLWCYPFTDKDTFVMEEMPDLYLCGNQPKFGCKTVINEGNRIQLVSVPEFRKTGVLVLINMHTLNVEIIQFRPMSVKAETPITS

Cdc1-A8 = molecular target: T4, Cdc1-A8 (Schizosaccharomyces pombe, UniProt P87324 1-462, Pro374Ala)
T4 construct: Cdc1, S. pombe, point mutant; source: yeast two-hybrid fusion, in S. cerevisiae CTY10-5d
T4 sequence (looked up): T3 sequence (looked up) with A344G, P374A

B1: Pol3 (fission yeast DNA polymerase delta catalytic subunit) (natural protein, Schizosaccharomyces pombe, UniProt P30316 1-1086, looked up)
chain: MTDRSSNEGVVLNKENYPFPRRNGSIHGEITDVKRRRLSERNGYGDKKGSSSKEKTSSFEDELAEYASQLDQDEIKSSKDQQWQRPALPAINPEKDDIYFQQIDSEEFTEGSVPSIRLFGVTDNGNSILVHVVGFLPYFYVKAPVGFRPEMLERFTQDLDATCNGGVIDHCIIEMKENLYGFQGNEKSPFIKIFTTNPRILSRARNVFERGEFNFEELFPVGVGVTTFESNTQYLLRFMIDCDVVGMNWIHLPASKYQFRYQNRVSNCQIEAWINYKDLISLPAEGQWSKMAPLRIMSFDIECAGRKGVFPDPSIDPVIQIASIVTQYGDSTPFVRNVFCVDTCSQIVGTQVYEFQNQAEMLSSWSKFVRDVDPDVLIGYNICNFDIPYLLDRAKSLRIHNFPLLGRIHNFFSVAKETTFSSKAYGTRESKTTSIPGRLQLDMLQVMQRDFKLRSYSLNAVCSQFLGEQKEDVHYSIITDLQNGTADSRRRLAIYCLKDAYLPQRLMDKLMCFVNYTEMARVTGVPFNFLLARGQQIKVISQLFRKALQHDLVVPNIRVNGTDEQYEGATVIEPIKGYYDTPIATLDFSSLYPSIMQAHNLCYTTLLDSNTAELLKLKQDVDYSVTPNGDYFVKPHVRKGLLPIILADLLNARKKAKADLKKETDPFKKAVLDGRQLALKVSANSVYGFTGATNGRLPCLAISSSVTSYGRQMIEKTKDVVEKRYRIENGYSHDAVVIYGDTDSVMVKFGVKTLPEAMKLGEEAANYVSDQFPNPIKLEFEKVYFPYLLISKKRYAGLFWTRTDTYDKMDSKGIETVRRDNCPLVSYVIDTALRKMLIDQDVEGAQLFTKKVISDLLQNKIDMSQLVITKALSKTDYAAKMAHVELAERMRKRDAGSAPAIGDRVAYVIIKGAQGDQFYMRSEDPIYVLENNIPIDAKYYLENQLSKPLLRIFEPILGEKASSLLHGDHTRTISMAAPSVGGIMKFAVKVETCLGCKAPIKKGKTALCENCLNRSAELYQRQVAQVNDLEVRFARLWTQCQRCQGSMHQDVICTSRDCPIFYMRIAEHKKLQQSVDLLKRFDEMSW
notes: DNA polymerase delta catalytic subunit Pol3, S. pombe; prey plasmid named pACT-Pol3 in the results and pGAD2F-Pol3 in the methods; also called Gal4-Pol3; pACT-Pol3; source: yeast two-hybrid fusion, in S. cerevisiae CTY10-5d
Cdc1-E1
  two-hybrid beta-galactosidase activity, % of wild-type Cdc1: 65%
Cdc1-E5
  two-hybrid beta-galactosidase activity, % of wild-type Cdc1: 48%
Cdc1-A7
  two-hybrid beta-galactosidase activity, % of wild-type Cdc1: 9%
Cdc1-A8
  two-hybrid beta-galactosidase activity, % of wild-type Cdc1: 17%
